Tests used:
human IL-33 = biological target: T1, human IL-33 (human, Biotinylated in Example 2; the site is not stated.); test: cell-based or functional assay
T1 chain: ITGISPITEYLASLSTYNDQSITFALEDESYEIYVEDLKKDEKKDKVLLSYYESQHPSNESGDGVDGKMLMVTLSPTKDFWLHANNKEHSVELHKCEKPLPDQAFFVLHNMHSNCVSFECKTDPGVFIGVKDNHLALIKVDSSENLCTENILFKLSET

hFcgRI = biological target: T2, hFcgRI (human, UniProt P12314 16-292); test: SPR (ProteOn XPR36), anti-poly-histidine IgG surface, antibody as analyte, equilibrium fit, 25 C
T2 construct: extracellular domain; the chip carried an anti-poly-histidine IgG; also called recombinant soluble human Fc gamma receptor I

hFcgRIIa (H131) = biological target: T3, hFcgRIIa (H131) (human, UniProt P12318 34-217); test: as above
T3 construct: extracellular domain; His at position 131 (mature numbering as commonly used)
T3 sequence (looked up): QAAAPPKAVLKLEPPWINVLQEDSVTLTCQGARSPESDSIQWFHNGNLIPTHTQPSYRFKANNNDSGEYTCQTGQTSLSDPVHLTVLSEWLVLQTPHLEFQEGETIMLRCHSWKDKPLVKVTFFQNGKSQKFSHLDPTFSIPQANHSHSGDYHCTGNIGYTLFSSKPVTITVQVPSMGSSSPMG

hFcgRIIa (R131) = biological target: T4, hFcgRIIa (R131) (human, UniProt P12318 34-217); test: as above
T4 construct: extracellular domain
T4 sequence (looked up): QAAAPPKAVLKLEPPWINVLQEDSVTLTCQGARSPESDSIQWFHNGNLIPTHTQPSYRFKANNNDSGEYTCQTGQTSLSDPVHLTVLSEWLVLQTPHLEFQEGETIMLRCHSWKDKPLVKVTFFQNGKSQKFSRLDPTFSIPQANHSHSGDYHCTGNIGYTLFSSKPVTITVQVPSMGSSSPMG

hFcgRIIb = biological target: T5, hFcgRIIb (human, UniProt P31994 43-217); test: as above
T5 construct: extracellular domain
T5 sequence (looked up): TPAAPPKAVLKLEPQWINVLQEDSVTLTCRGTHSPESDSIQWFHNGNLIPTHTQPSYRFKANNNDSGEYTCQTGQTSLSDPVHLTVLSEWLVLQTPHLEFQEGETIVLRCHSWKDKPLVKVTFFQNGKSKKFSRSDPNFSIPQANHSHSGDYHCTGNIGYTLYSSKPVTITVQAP

hFcgRIIIa (V158) = biological target: T6, hFcgRIIIa (V158) (human, UniProt P08637 17-208); test: as above
T6 construct: extracellular domain

hFcgRIIIa (F158) = biological target: T7, hFcgRIIIa (F158) (human, UniProt P08637 17-208); test: as above
T7 construct: extracellular domain
T7 sequence (P08637 17-208): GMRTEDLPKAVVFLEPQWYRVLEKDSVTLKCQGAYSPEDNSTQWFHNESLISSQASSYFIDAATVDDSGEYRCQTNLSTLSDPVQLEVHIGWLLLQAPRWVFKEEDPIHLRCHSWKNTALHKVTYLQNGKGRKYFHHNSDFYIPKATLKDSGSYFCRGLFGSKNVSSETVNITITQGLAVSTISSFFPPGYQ

T2 sequence (P12314 16-292): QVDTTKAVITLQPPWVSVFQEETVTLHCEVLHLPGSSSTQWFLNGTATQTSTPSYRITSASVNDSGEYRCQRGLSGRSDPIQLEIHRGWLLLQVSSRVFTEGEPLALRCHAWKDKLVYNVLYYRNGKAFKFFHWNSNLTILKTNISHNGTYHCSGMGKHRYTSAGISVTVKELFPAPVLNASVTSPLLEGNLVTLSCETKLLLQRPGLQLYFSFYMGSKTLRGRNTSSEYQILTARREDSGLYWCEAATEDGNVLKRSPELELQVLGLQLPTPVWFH
T6 sequence (P08637 17-208 F176V): as the sequence (P08637 17-208) above, with F160V counted along it

IC50, inhibition of 30 ng/mL IL-33/IL-12 induced IFN-γ secretion from whole blood, pre-complexed, Mean (human IL-33): 3.24 nM | IC50, inhibition of 30 ng/mL IL-33/IL-12 induced IFN-γ secretion from whole blood, pre-complexed, donor #91232 (human IL-33): 1.47 nM | IC50, inhibition of 30 ng/mL IL-33/IL-12 induced IFN-γ secretion from whole blood, pre-complexed, donor #91845 (human IL-33): 3.88 nM | IC50, inhibition of 30 ng/mL IL-33/IL-12 induced IFN-γ secretion from whole blood, pre-complexed, donor #92023 (human IL-33): 2.48 nM | IC50, inhibition of 30 ng/mL IL-33/IL-12 induced IFN-γ secretion from whole blood, pre-complexed, donor #92187 (human IL-33): 4.92 nM | IC50, inhibition of 30 ng/mL IL-33/IL-12 induced IFN-γ secretion from whole blood, pre-complexed, donor #92257 (human IL-33): 1.75 nM | IC50, inhibition of 30 ng/mL IL-33/IL-12 induced IFN-γ secretion from whole blood, pre-complexed, donor #92258 (human IL-33): 4.93 nM | pIC50, inhibition of 30 ng/mL IL-33/IL-12 induced IFN-γ secretion from whole blood, pre-complexed, Mean (human IL-33): 8.53 | pIC50, inhibition of 30 ng/mL IL-33/IL-12 induced IFN-γ secretion from whole blood, pre-complexed, donor #91232 (human IL-33): 8.83 | pIC50, inhibition of 30 ng/mL IL-33/IL-12 induced IFN-γ secretion from whole blood, pre-complexed, donor #91845 (human IL-33): 8.41 | pIC50, inhibition of 30 ng/mL IL-33/IL-12 induced IFN-γ secretion from whole blood, pre-complexed, donor #92023 (human IL-33): 8.6 | pIC50, inhibition of 30 ng/mL IL-33/IL-12 induced IFN-γ secretion from whole blood, pre-complexed, donor #92187 (human IL-33): 8.3 | pIC50, inhibition of 30 ng/mL IL-33/IL-12 induced IFN-γ secretion from whole blood, pre-complexed, donor #92257 (human IL-33): 8.75 | pIC50, inhibition of 30 ng/mL IL-33/IL-12 induced IFN-γ secretion from whole blood, pre-complexed, donor #92258 (human IL-33): 8.3 | Kd (hFcgRI): 24.3 nM | Kd (hFcgRIIa (H131)): 574 nM | Kd (hFcgRIIa (R131)): 502 nM | Kd (hFcgRIIb): 5.22 µM | Kd (hFcgRIIIa (V158)): 215 nM | Kd (hFcgRIIIa (F158)): 987 nM
B1: 22A06-458 (antibody, human IgG1, kappa)
heavy: QVQLVQSGAEVKKPGASVKVSCKASGYTFISYGMHWVRQAPGQGLEWMGEINPHGGSTSYAQKFKGRVTMTRDTSTSTVYMELSSLRSEDTAVYYCARPSAAYSHYLGIDLWGRGTLVTVSSASTKGPSVFPLAPSSKSTSGGTAALGCLVKDYFPEPVTVSWNSGALTSGVHTFPAVLQSSGLYSLSSVVTVPSSSLGTQTYICNVNHKPSNTKVDKKVEPKSCDKTHTCPPCPAPELLGGPSVFLFPPKPKDTLYITREPEVTCVVVDVSHEDPEVKFNWYVDGVEVHNAKTKPREEQYNSTYRVVSVLTVLHQDWLNGKEYKCKVSNKALPAPIEKTISKAKGQPREPQVYTLPPSRDELTKNQVSLTCLVKGFYPSDIAVEWESNGQPENNYKTTPPVLDSDGSFFLYSKLTVDKSRWQQGNVFSCSVMHEALHNHYTQKSLSLSPGK
light: DIQMTQSPSSVSASVGDRVTITCRASQGISSWLAWYQQKPGKAPKLLIYAASRLQSGVPSRFSGSGSGTDFTLTISSLQPEDFATYYCQQANVFPLTFGGGTKVEIKRTVAAPSVFIFPPSDEQLKSGTASVVCLLNNFYPREAKVQWKVDNALQSGNSQESVTEQDSKDSTYSLSSTLTLSKADYEKHKVYACEVTHQGLSSPVTKSFNRGEC
